Measured values published in patent US10124019B2, “Compositions and their use for removing cholesterol” (Cornell University, priority 2009, dated 2018).
Each block holds one molecule with its values, some of them ahead of it.

Tests used:
[1] = system: NPC1-deficient, NPC2-deficient, apparently normal, and U18666A-treated normal cells; experiment: GC/MS measurement of total free cholesterol; format: cell-based, human; conditions: normal cells treated with 1 μM U18666A
Experimental: FIGS. […]. Charts showing GC/MS measurement of cyclodextrin effects on total free cholesterol levels in NPC1-deficient, NPC2-deficient, apparently normal, and U18666A-treated normal cells. […] Cells were treated with 0.9 mM MβCD or HPβCD for 1 day in growth medium. At the end of the experiment, cellular lipids were extracted and analyzed by GC/MS. Data represent averages±SEM of two independent experiments normalized to control average value for each experiment.

[2] = system: U18666A-treated GM05659 cells; experiment: LSO filipin assay in U18666A-treated apparently normal fibroblasts; conditions: GM05659 treated with various concentrations of U18666A (FIG. 14A)
Experimental: Cells were plated in 384-well assay plates at a density to produce ≈80-90% confluency by experiment completion and treated with U18666A at indicated concentrations for 24 hour before addition of various concentrations of either MβCD or HPβCD for another 24 hours, during which indicated U18666A levels were maintained. At the end of the experiment, cells were fixed with 1% PFA and stained with 50 μg/mL filipin. Images were acquired using an ImageXpressMICRO imaging system with a 10× objective. […] (A) Cholesterol accumulation, as measured by the LSO filipin assay, at different concentrations of U18666A. MβCD (B) and HPβCD (C) LSO filipin dose-response curves at three different U18666A concentrations. […] Data represent averages±SEM of two independent experiments (n=12 for control and n=6 for treated, where n is total number of wells per condition used for quantification).

NPC (GM03123) Fbs [3] = experiment: rhASM enzyme replacement, LSO filipin quantification in NPC fibroblasts; format: cell-based, human
Experimental: FIGS. 27 A-C. Graph showing the effect of SMase restoration on human NPC1 cells (exogenous acid SMase decreases cholesterol accumulation in LSOs in human NPC fibroblasts). Parallel sets of human WT (GM05659) and NPC (GM03123) Fbs were incubated in medium alone or, in the case of the NPC fibroblasts, medium containing 3 μg/mL recombinant human acid SMase (rhASM). Two days later, the cells were washed thoroughly with PBS and either lysed and assayed for acid SMase activity (A), or fixed and stained with filipin for imaging and quantification (B). […] Scale bar, 15 μm. The quantified data in the bar graph represent LSO ratios normalized to the WT Fb values (average of 60-66 images from three independent experiments±SEM). C) Another human NPC Fbs (GM18453) was incubated with 3 μg/mL rhASM for 24 h, unlike 48 h in NPC1 (GM03123). Quantified data shown in bar chart are the normalized LSO ratios (normalized to untreated NPC Fbs) in the presence and absence of recombinant enzyme. Data represents an average from two independent experiments and 30-36 images±SEM, p<0.0001.
(§1) FIG. 29 A,B. Decreased LSO cholesterol accumulation and increased acid SMase activity are achieved in NPC1 human fibroblasts by increasing amounts of rhASM. WT (GM5659) and NPC (GM03123) Fbs were incubated with 0, 0.2 and 1.8 μg/mL rhASM for 24 hours. To remove surface-bound label, the cells were further incubated for 15 minutes with growth medium without the enzyme. The cells were washed thoroughly with PBS and either lysed and assayed for acid SMase activity (A) or fixed and stained with filipin for imaging and quantification (B). Each data point in plot (A) is representative of three wells in an experiment, p<0.05. Plot (B) represents LSO ratios normalized to the untreated NPC Fb […] values (average of 16-20 images from two independent experiments±SEM), p<0.005.
(§2) Normal (GM05659) and NPC1 human fibroblasts (GM03123) were incubated in a medium containing 3 μg/mL recombinant human acid SMase (rhASM). Two days later, the cells were washed thoroughly with PBS, and either lysed and assayed for acid SMase activity or fixed and stained with filipin for imaging and quantification. NPC1 human fibroblasts GM18453 were treated with 3 μg/mL rhASM for 24 h before fixing, staining with filipin, imaging and quantifying.
Cells were plated onto poly-d-lysine-coated 35-mm coverslip dishes in a medium containing 10% FBS. After 1-2 days of growth, the cell monolayers were washed three times with PBS and then fixed with 3% paraformaldehyde in PBS for 20 minutes at room temperature, followed by three more washes with PBS. To detect free cholesterol, filipin was added to the fixed cells (50 μg/mL in PBS) for 45 minutes at room temperature. Finally, the cells were washed three times with PBS, and images were acquired immediately after labeling.
(§3) Images were analyzed using Metamorph (version 7.0 r4) image analysis software from Molecular Devices (MDS Analytical Technologies). All images were corrected for background before analysis. The average filipin and LSO ratio was calculated as described previously (Pipalia 2006). The LSO ratio was calculated based on low-thresholded region and high-thresholded intensities in the filipin image as described previously (Pipalia 2006).

NPC (GM03123) Fbs [4] = experiment: Acid SMase activity assay after rhASM, NPC fibroblasts; format: cell-based, human
Experimental: as §1
Cell extracts were prepared by scraping cells into ice-cold 250 mM sucrose, followed by sonication on ice twice for 10 seconds each using a Branson Sonifier 450. […]
as §2

WT Fbs (GM05659) [5] = experiment: rhASM, LSO filipin quantification in wild-type fibroblasts; format: cell-based, human; conditions: all doses of rhASM tested (0, 0.2, 1.8 μg/mL)
Experimental: as §1
Cells were plated onto poly-d-lysine-coated 35-mm coverslip dishes in a medium containing 10% FBS. […]
as §3, with “All images were corrected for background before analysis.” left out

WT Fbs (GM05659) [6] = experiment: Acid SMase activity assay after rhASM, wild-type fibroblasts; format: cell-based, human; conditions: 24 hours
Experimental: as §1
Cell extracts were prepared by scraping cells into ice-cold 250 mM sucrose, followed by sonication on ice twice for 10 seconds each using a Branson Sonifier 450. To prepare the substrate, solvent from 0.1 μCi [cholinemethyl-^14C] […] The assay solution, which was added to 1.5-mL microcentrifuge tubes on ice, consisted of 50 μL assay buffer, 20 μL substrate and 20 μL of cell extract. After incubation for 60 minutes at 37° C., the reaction was terminated by adding 125 μL of chloroform:methanol (2:1, v/v). The assay tubes were vortexed for 1 minute and then centrifuged 5000×g for 5 minutes at 4° C. […]

[7] = system: WT (GM05659) and NPC (GM03123) human fibroblasts; experiment: Sub-cellular localization and uptake of Alexa555-conjugated rhASM; format: cell-based; conditions: data not shown
Experimental: WT (GM5659) and NPC (GM03123) Fbs were incubated with or without 3 μg/mL Alexa555-conjugated rhASM for 24 hours. To remove surface-bound label, the cells were further incubated for 15 min with a growth medium without the enzyme. Finally, the cells were washed with PBS, fixed with 1.5% PFA, and stained with filipin for imaging and quantification. […] Color overlays for filipin (green) and rhASM-Alexa555 (red) are shown in panels (C, F and I). The images in the inset are the zoomed color overlays of the region marked in (C, F and I). Scale bar=10 μm.
For identifying the localization of rhASM in the cells, recombinant enzyme was conjugated with Alexa555 (Invitrogen) according to the manufacturer's protocol. Normal (GM05659) and NPC1 human fibroblasts (GM03123) were incubated in a medium containing 3 μg/mL Alexa555-rhASM for 24 h prior to fixing and staining with filipin. Images were acquired using standard UV and TRITC filters for filipin and Alexa555-labeled rhASM, and quantified.
To ascertain whether exogenously added rhASM was localized and processed in late endosomal organelles, WT (GM05659) and NPC (GM03123) human fibroblasts were incubated for 24 hours in the absence or presence of 3 μg/mL of Alexa555-labeled rhASM. […] The cells were then washed, fixed and stained with filipin for imaging and quantification. […]

Molecule: CCN(CC)CCO[C@H]1CC[C@@]2(C)C(=CC[C@@H]3[C@@H]2CC[C@]2(C)C(=O)CC[C@@H]32)C1 [U18666A, 3-β-[(2-diethyl-amino)ethoxy]androst-5-en-17-one]
free cholesterol per μg cell protein [1]: 0.074 ± 0.006 pmol/µg
extent of cholesterol accumulation in LSOs [2]: dose dependent

decrease in LSO filipin intensity (NPC (GM03123) Fbs [3]; 0.2 μg/mL rhASM, 24 hours): ~20%
reduction of LSO filipin intensity (NPC (GM03123) Fbs [3]; 1.8 μg/mL rhASM, 24 hours): ~60%
decrease in LSO filipin intensity (NPC (GM03123) Fbs [3]; 3 μg/mL rhASM (FIG. 27)): 65-70%
residual cholesterol accumulation (NPC (GM03123) Fbs [3]; excess acid SMase, NPC1 cells): 25-30%
B1: rhASM: Recombinant human acid SMase prepared from transfected CHO cells (protein, UniProt P17405 47-631, looked up)
Sphingomyelin …: LALSDSRVLWAPAEAHPLSPQGHPARLHRIVPRLRDVFGWGNLTCPICKGLFTAINLGLKKEPNVARVGSVAIKLCNLLKIAPPAVCQSIVHLFEDDMVEVWRRSVLSPSEACGLLLGSTCGHWDIFSSWNISLPTVPKPPPKPPSPPAPGAPVSRILFLTDLHWDHDYLEGTDPDCADPLCCRRGSGLPPASRPGAGYWGEYSKCDLPLRTLESLLSGLGPAGPFDMVYWTGDIPAHDVWHQTRQDQLRALTTVTALVRKFLGPVPVYPAVGNHESTPVNSFPPPFIEGNHSSRWLYEAMAKAWEPWLPAEALRTLRIGGFYALSPYPGLRLISLNMNFCSRENFWLLINSTDPAGQLQWLVGELQAAEDRGDKVHIIGHIPPGHCLKSWSWNYYRIVARYENTLAAQFFGHTHVDEFEVFYDEETLSRPLAVAFLAPSATTYIGLNPGYRVYQIDGNYSGSSHVVLDHETYILNLTQANIPGAIPHWQLLYRARETYGLPNTLPTAWHNLVYRMRGDMQLFQTFWFLYHKGHPPSEPCGTPCRLATLCAQLSARADSPALCRHLMPDGSLPEAQSLWPRPLFC
LSO filipin fluorescence (NPC (GM03123) Fbs [3]; 3 μg/mL rhASM, two days (FIG. 27B)): dramatically decreased LSO filipin fluorescence
acid SMase activity (NPC (GM03123) Fbs [4]; 0.2 μg/mL rhASM, 24 hours): increased acid SMase activity significantly
defect in acid SMase activity (NPC (GM03123) Fbs [4]; 3 μg/mL rhASM, two days (FIG. 27A)): corrected
LSO filipin staining (WT Fbs (GM05659) [5]): remained low and constant
acid SMase activity (WT Fbs (GM05659) [6]; 0.2 μg/mL rhASM): increased slightly
acid SMase activity (WT Fbs (GM05659) [6]; 1.8 μg/mL rhASM): did not increase further

B2: rhASM-Alexa555: recombinant enzyme conjugated with Alexa555 (conjugate, UniProt P17405 47-631, looked up)
Sphingomyelin …: B1 Sphingomyelin …
modifications: Alexa555 label
effect of Alexa555 conjugation on enzyme activity [7]: did not affect its activity
